Results taken from PMC8295500, “Co-Immobilized Capillary Enzyme Reactor Based on Beta-Secretase1 and Acetylcholinesterase: A Model for Dual-Ligand Screening” (Frontiers in Chemistry, 2021).

Substrate: CC(=O)OCC[N+](C)(C)C
Assay: purified protein
Type: biochemical, Homo sapiens

B1: acetylcholinesterase (huAChE) (Homo sapiens) (protein)
chain: EGREDAELLVTVRGGRLRGIRLKTPGGPVSAFLGIPFAEPPMGPRRFLPPEPKQPWSGVVDATTFQSVCYQYVDTLYPGFEGTEMWNPNRELSEDCLYLNVWTPYPRPTSPTPVLVWIYGGGFYSGASSLDVYDGRFLVQAERTVLVSMNYRVGAFGFLALPGSREAPGNVGLLDQRLALQWVQENVAAFGGDPTSVTLFGESAGAASVGMHLLSPPSRGLFHRAVLQSGAPNGPWATVGMGEARRRATQLAHLVGCPPGGTGGNDTELVACLRTRPAQVLVNHEWHVLPQESVFRFSFVPVVDGDFLSDTPEALINAGDFHGLQVLVGVVKDEGSYFLVYGAPGFSKDNESLISRAEFLAGVRVGVPQVSDLAAEAVVLHYTDWLHPEDPARLREALSDVVGDHNVVCPVAQLAGRLAAQGARVYAYVFEHRASTLSWPLWMGVPHGYEIEFIFGIPLDPSRNYTAEEKIFAQRLMRYWANFARTGDPNEPRDPKAPQWPPYTAGAQQYVSLDLRPLEVRRGLRAQACAFWNRFLPKLLSATDTLDEAERQWKAEFHRWSSYMVHWKNQFDHYSKQDRCSDL
notes: human recombinant, expressed in HEK 293 cells; immobilized on fused silica capillary
Km: 23.3 ± 1 µM
